Data reported in US5458874A, “Method of increasing monocyte chemotaxis with CAP37 and monocyte chemotactic portions thereof” (Emory University, priority 1992, dated 1995).
Entries after “also recorded” stand apart in the source; their conditions may differ.

How the values were obtained:
[1] = tested on: LPS from S. minnesota wild type; LPS from S. minnesota Re mutant; assay: ELISA, binding of CAP37 to LPS; conditions: CAP37 at 120 ng/well; LPS 0 to 50 μg/ml
Protocol: The LPS from S. minnesota wild type, S. minnesota Re mutant, Lipid A from S. minnesota R595, and Lipid A from S. typhimurium Re mutant were applied to microtiter wells at concentrations ranging from 0 to 50 μg/ml and incubated overnight. The trays were then incubated with CAP37 at 120 ng/well for 1 hour at 37° C. The next incubation was with a rabbit antiserum against CAP37 (1:400 dilution) and the color development was as previously described (Pereira et al., 1989) and the absorbance was read at 492 nm.

[2] = tested on: monocytes/macrophages; assay: In vivo chemotactic assay, intraperitoneal injection, peritoneal exudate cells; parameters: species or system BALB/c mice; conditions: for % PMN / % monocytes: i.p., mice, peritoneal exudate
Protocol: Female BALB/c mice (6-8 weeks) (Jackson Laboratory, Bar Harbor, […].) were injected intraperitoneally (i.p.) with 100 ng CAP37 (purified according to the method of the invention) per mouse in 2 ml RPMI-1640 serum-free medium (Mediatech). A control group of mice were injected i.p. with 2 ml brewers thioglycollate (4% w/v) (Difco Laboratories), a known stimulator of inflammatory cells whose action is well documented. A second control group of mice were injected j.p. with 2 ml of RPMI-1640 alone.
At 6, 24, 48 and 72 hours following these i.p. injections, four mice in each group were sacrificed by CO2 anesthesia. Ten ml sterile medium was injected into the peritoneal cavity of each mouse and the abdominal area gently massaged to dislodge the exudate cells. The medium containing the exudate cells was then aspirated from the peritoneal cavity using a 19 gauge needle attached to a syringe. The total number of cells in the peritoneal exudate was determined by counting the cells on a COULTER COUNTER (Coulter Electronics, Hialeah, Fla.: The operation of the COULTER COUNTER is based on electrical conductivity difference between particles and common diluent. Particles act as insulators, diluents as good conductors. The particles, suspended in an electrolyte, are forced through a small aperture through which an electrical current path has been established. As each particle displaces electrolyte in the aperture, a pulse essentially proportional to the particle volume is produced. Thus a 3-dimensional particle volume response is the basis for all sizing, regardless of position or orientation of the particle in solution.) One hundred μl of the peritoneal exudate was cytocentrifuged onto a glass slide and the cells stained with Wright's stain. A differential count of the cells was made by counting the number of monocytes, lymphocytes, neutrophils, basophils and eosinoplils per hundred consecutive cells. These experiments were performed to determine the time course of migration of neutrophils, monocytes, lymphocytes and other cells into the peritoneal cavity, in response to an i.p. injection of CAP37.

[3] = tested on: Salmonella SH7518; assay: Bactericidal assay; format: cell-based, Salmonella typhimurium; conditions: Salmonella SH7518
Protocol: An overnight culture of Salmonella typhimurium (or other microorganism of interest, if desired) is set up by inoculating one colony in 5 ml of LB Broth (LB Broth consists of 10 g BACTO tryptone (DIFCO), 5 g BACFO yeast (DIFCO) and 5 g NaCl made up to 1 L with endotoxin free water; add 15 g of BACTO agar (DIFCO) to this broth to make LB agar (autoclave). The culture is incubated at 37° C. with rotation. 100 μl of this overnight culture is then transferred to 5 ml of fresh LB Broth and incubated at 37° C. with rotation for 2 hours. Four ml of this log phase culture is then transferred to a sterile cuvette and the optical density is read at […]. Dilutions of the microorganism are then made in tryptone saline (5 g BAOTO tryptone (DIFCO) and 5 g NaCl made up to 1 L with endotoxin free water, pH 5.5) to give a final concentration of 5×10^3 organisms/ml (an O.D. reading of 0.25 at 520 mm is equivalent to 1×10^8 organisms/ml). The microorganisms are placed at 4° C. until ready to be used.
The stock solutions of peptides are stored at -20° C. at concentrations of 1 mg/ml of endotoxin-free water. The peptide is diluted out in tryptone saline to the desired concentration. 100 μl of the peptide is added to each well of the microtitre plate (Corning) and then 100 μl of the bacterial suspension (well vortexed) is added. Each assay point is set up in triplicate. 100 μl of a control, consisting of bacteria and tryptone saline (T=0) in the absence of peptide is plated out on LB agar plates. The microliter plate is then incubated at 37° C. for 1 hour. At the end of the incubation time, 100 μl of each sample is plated out on LB agar plates. The T=60 control (consisting of bacteria and tryptone saline in the absence of peptide) is plated out last. The plates are incubated overnight, and the number of colony forming units (CFU) are determined.
The % killed is determined as follows: [formula]

[4] = tested on: E. coli; conditions: (Shafer, 1986); cited from earlier work
[5] = tested on: P. mirabilis Re45; conditions: (Shafer, 1986); cited from earlier work

B1: CAP37: granule-associated cationic protein (mol. wt. 37,000 daltons) from human PMN, 222 amino acid mature protein (protein)
chain: IVGGRKARPRQFPFLASIQNQGRHFCGGALIHARFVMTAASCFQSQNPGVSTVVLGAYDLRRRERQSRQTFSISSMSENGYDPQQNLNDLMLLQLDREANLTSSVTILPLPLQNATVEAGTRCQVAGWGSQRSGGRLSRFPRFVNVTVTPEDQCRPNNVCTGVLTRRGGICNGDGGTPLVCEGLAHGVASFSLGPCGRGPDFFTRVALFRDWIDGVLNNPGP
- binding to LPS (ELISA) [1]: capable of binding Re LPS
- migration of cells into the peritoneal cavity (in words) ([2]; 100 ng CAP37 per mouse i.p.): moderately increased the overall numbers of cells; also recorded: potent monocyte chemoattractant capacity
- time at which monocytes appeared in the peritoneal cavity ([2]; 100 ng CAP37 per mouse i.p.): 24 h
- % PMN ([2]; 6 hours post injection): 65%
- % monocytes ([2]; 6 hours post injection): 7%
- % PMN ([2]; 24 hours post injection): dramatic reduction in neutrophils
- % monocytes ([2]; 24 hours post injection): 27%
- % PMN ([2]; 24 hours post injection, listed as CAP 37): 26%
- % PMN ([2]; 48 hours post injection): 4%
- % monocytes ([2]; 48 hours post injection): 48%
- % PMN ([2]; 72 hours post injection): 3%
- % monocytes ([2]; 72 hours post injection): 55%
- % survival with CAP 37 [3]: 10.9%
- % survival with CAP 37 [4]: 4%
- % survival with CAP 37 [5]: 100%
